The target in the test is (UreABC)3 urease apoprotein (Klebsiella aerogenes, UniProt P18316 1-100; P18315 1-106; P18314 1-567). The test can be described thus: native MS.

These results are taken from publication PMC5884726 (Structure (London, England : 1993), 2018).

Chain of (UreABC)3 urease apoprotein (P18316 whole entry, chain 1 of 3): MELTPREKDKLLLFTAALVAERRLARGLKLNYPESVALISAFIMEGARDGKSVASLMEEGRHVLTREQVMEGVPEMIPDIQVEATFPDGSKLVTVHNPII
Chain of (UreABC)3 urease apoprotein (P18315 whole entry, chain 2 of 3): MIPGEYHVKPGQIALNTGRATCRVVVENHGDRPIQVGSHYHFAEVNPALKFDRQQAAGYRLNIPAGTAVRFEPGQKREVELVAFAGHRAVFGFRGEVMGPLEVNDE
Chain of (UreABC)3 urease apoprotein (P18314 whole entry, chain 3 of 3): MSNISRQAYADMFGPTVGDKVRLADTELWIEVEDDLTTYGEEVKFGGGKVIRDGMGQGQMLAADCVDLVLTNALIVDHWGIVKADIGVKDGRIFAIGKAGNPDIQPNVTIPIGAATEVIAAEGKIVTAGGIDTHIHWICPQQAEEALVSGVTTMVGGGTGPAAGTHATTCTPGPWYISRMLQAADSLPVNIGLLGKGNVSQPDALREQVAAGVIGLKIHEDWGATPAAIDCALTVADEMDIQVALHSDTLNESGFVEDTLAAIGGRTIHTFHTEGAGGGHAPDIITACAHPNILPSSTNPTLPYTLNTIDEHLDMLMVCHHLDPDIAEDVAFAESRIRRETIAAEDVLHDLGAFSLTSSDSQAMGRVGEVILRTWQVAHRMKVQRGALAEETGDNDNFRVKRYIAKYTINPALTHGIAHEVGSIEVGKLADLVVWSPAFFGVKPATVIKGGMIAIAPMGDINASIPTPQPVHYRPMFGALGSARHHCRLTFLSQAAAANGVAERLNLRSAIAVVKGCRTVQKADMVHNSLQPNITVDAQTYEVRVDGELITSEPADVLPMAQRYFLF

B1: maltose binding protein-UreD fusion protein (MBP-UreD) (natural protein, Klebsiella aerogenes, UniProt Q09063 1-270, looked up)
chain: MLPPLKKGWQATLDLRFHQAGGKTVLASAQHVGPLTVQRPFYPEEETCHLYLLHPPGGIVGGDELTISAHLAPGCHTLITMPGASKFYRSSGAQALVRQQLTLAPQATLEWLPQDAIFFPGANARLFTTFHLCASSRLLAWDLLCLGRPVIGETFSHGTLSNRLEVWVDNEPLLVERLHLQEGELSSIAERPWVGTLLCYPATDALLDGVRDALAPLGLYAGASLTDRLLTVRFLSDDNLICQRVMRDVWQFLRPHLTGKSPVLPRIWLT
With B1, the binding result was “binds”.
